Measured values taken from patent EP2966448B1, “METHOD FOR THE PREDICTION OR PROGNOSIS OF THE RESPONSE OF A HUMAN SUBJECT SUFFERING FROM CANCER TO TREATMENT WITH AN ANTAGONIST OF THE NK1 RECEPTOR” (priority 2013, dated 2014).

Molecular target: NK1 receptor (human) (UniProt P25103)
Test: cell-based or functional assay

Sequence of NK1 receptor (human) (P25103 87-407): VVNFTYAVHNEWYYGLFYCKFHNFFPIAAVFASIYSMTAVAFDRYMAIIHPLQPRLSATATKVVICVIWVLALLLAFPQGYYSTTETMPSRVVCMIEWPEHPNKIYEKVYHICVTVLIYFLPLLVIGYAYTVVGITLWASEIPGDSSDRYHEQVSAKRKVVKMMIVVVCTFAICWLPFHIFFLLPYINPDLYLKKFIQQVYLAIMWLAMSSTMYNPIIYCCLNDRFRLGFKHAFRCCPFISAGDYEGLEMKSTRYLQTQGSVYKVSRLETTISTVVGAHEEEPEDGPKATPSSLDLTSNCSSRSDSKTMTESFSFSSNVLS

antibody against NK1 receptor (Sigma-Aldrich, catalogue number S8305)
57%: Percentage of inhibition of cell cultures; Prostate carcinoma; Group 2 (expression in 20-80% of the cells)
56%: Percentage of inhibition of cell cultures; Lung carcinoma (small cell type); Group 2 (expression in 20-80% of the cells) | Percentage of inhibition of cell cultures; Malignant Fibrous Histiocytoma.; Group 2 (expression in 20-80% of the cells) | Percentage of inhibition of cell cultures; Melanoma; Intensity grade 2 | Percentage of inhibition of cell cultures; Myeloma; Group 2 (expression in 20-80% of the cells) | Percentage of inhibition of cell cultures; Myeloma; Intensity grade 2 | Percentage of inhibition of cell cultures; Non Hodgkin Lymphoma T; Intensity grade 2 | Percentage of inhibition of cell cultures; Prostate carcinoma; Intensity grade 2 | Percentage of inhibition of cell cultures; Thyroid carcinoma (papillary type); Intensity grade 2
98%: Percentage of inhibition of cell cultures; Non Hodgkin Lymphoma B (diffuse B cell lymphoma); cases with presence of ERK
32%: Percentage of inhibition of cell cultures; Renal cell carcinoma (clear cell renal cell carcinoma); cases without presence of ERK
97%: Percentage of inhibition of cell cultures; Lung carcinoma (non small cell type); Intensity grade 3 | Percentage of inhibition of cell cultures; Melanoma (Nodular Melanoma); cases with presence of AKT | Percentage of inhibition of cell cultures; Melanoma; Intensity grade 3 | Percentage of inhibition of cell cultures; Non Hodgkin Lymphoma T (diffuse T cell lymphoma); cases with presence of ERK | Percentage of inhibition of cell cultures; Ovarian carcinoma; Group 3 (expression in more than 80% of the cells) | Percentage of inhibition of cell cultures; Renal cell carcinoma; Intensity grade 3
23%: Percentage of inhibition of cell cultures; Lung carcinoma (non small cell type); Group 1 (expression in less than 20% of the cells) | Percentage of inhibition of cell cultures; Melanoma; Intensity grade 1 | Percentage of inhibition of cell cultures; Myeloma; Group 1 (expression in less than 20% of the cells) | Percentage of inhibition of cell cultures; Non Hodgkin Lymphoma B; Group 1 (expression in less than 20% of the cells) | Percentage of inhibition of cell cultures; Non Hodgkin Lymphoma T; Group 1 (expression in less than 20% of the cells) | Percentage of inhibition of cell cultures; Ovarian carcinoma; Intensity grade 1 | Percentage of inhibition of cell cultures; Pancreatic carcinoma; Group 1 (expression in less than 20% of the cells) | Percentage of inhibition of cell cultures; Prostate carcinoma; Group 1 (expression in less than 20% of the cells) | Percentage of inhibition of cell cultures; Renal cell carcinoma; Intensity grade 1 | Percentage of inhibition of cell cultures; Urinary bladder carcinoma; Group 1 (expression in less than 20% of the cells)
26%: Percentage of inhibition of cell cultures; Non Hodgkin Lymphoma B; Intensity grade 1 | Percentage of inhibition of cell cultures; Prostate carcinoma; cases without presence of AKT | Percentage of inhibition of cell cultures; Thyroid carcinoma (follicular carcinoma); cases without presence of ERK | Percentage of inhibition of cell cultures; Thyroid carcinoma (folliculary type); Intensity grade 1
52%: Percentage of inhibition of cell cultures; Renal cell carcinoma; Group 2 (expression in 20-80% of the cells)
53%: Percentage of inhibition of cell cultures; Neuroblastoma; Intensity grade 2 | Percentage of inhibition of cell cultures; Pancreatic carcinoma; Group 2 (expression in 20-80% of the cells) | Percentage of inhibition of cell cultures; Renal cell carcinoma; Intensity grade 2 | Percentage of inhibition of cell cultures; Thyroid carcinoma (folliculary type); Intensity grade 2 | Percentage of inhibition of cell cultures; Thyroid carcinoma (papillary type); Group 2 (expression in 20-80% of the cells)
90%: Percentage of inhibition of cell cultures; Melanoma (Nodular Melanoma); cases with presence of ERK | Percentage of inhibition of cell cultures; Prostate carcinoma; cases with presence of AKT | Percentage of inhibition of cell cultures; Prostate carcinoma; cases with presence of ERK | Percentage of inhibition of cell cultures; Undifferentiated Pleomorphic Sarcoma (malignant fibrous histiocytoma grade 3); cases with presence of AKT | Percentage of inhibition of cell cultures; Undifferentiated Pleomorphic Sarcoma (malignant fibrous histiocytoma grade 3); cases with presence of ERK
91%: Percentage of inhibition of cell cultures; Urinary bladder carcinoma (transitional cell carcinoma); cases with presence of AKT
29%: Percentage of inhibition of cell cultures; Lung carcinoma (non small cell lung carcinoma); cases without presence of ERK | Percentage of inhibition of cell cultures; Non Hodgkin Lymphoma B (diffuse B cell lymphoma); cases without presence of ERK
54%: Percentage of inhibition of cell cultures; Lung carcinoma (small cell type); Intensity grade 2 | Percentage of inhibition of cell cultures; Neuroblastoma; Group 2 (expression in 20-80% of the cells) | Percentage of inhibition of cell cultures; Non Hodgkin Lymphoma B; Group 2 (expression in 20-80% of the cells) | Percentage of inhibition of cell cultures; Ovarian carcinoma; Intensity grade 2 | Percentage of inhibition of cell cultures; Pancreatic carcinoma; Intensity grade 2 | Percentage of inhibition of cell cultures; Thyroid carcinoma (folliculary type); Group 2 (expression in 20-80% of the cells) | Percentage of inhibition of cell cultures; Urinary bladder carcinoma; Group 2 (expression in 20-80% of the cells)
95%: Percentage of inhibition of cell cultures; Lung carcinoma (non small cell lung carcinoma); cases with presence of ERK | Percentage of inhibition of cell cultures; Lung carcinoma (small cell type); Group 3 (expression in more than 80% of the cells) | Percentage of inhibition of cell cultures; Malignant Fibrous Histiocytoma.; Intensity grade 3 | Percentage of inhibition of cell cultures; Myeloma; Intensity grade 3 | Percentage of inhibition of cell cultures; Neuroblastoma; Group 3 (expression in more than 80% of the cells) | Percentage of inhibition of cell cultures; Non Hodgkin Lymphoma B (diffuse B cell lymphoma); cases with presence of AKT | Percentage of inhibition of cell cultures; Non Hodgkin Lymphoma T; Intensity grade 3 | Percentage of inhibition of cell cultures; Ovarian carcinoma (Adenocarcinoma); cases with presence of AKT | Percentage of inhibition of cell cultures; Pancreatic carcinoma (Adenocarcinoma); cases with presence of AKT | Percentage of inhibition of cell cultures; Renal cell carcinoma (clear cell renal cell carcinoma); cases with presence of ERK | Percentage of inhibition of cell cultures; Thyroid carcinoma (folliculary type); Intensity grade 3 | Percentage of inhibition of cell cultures; Urinary bladder carcinoma; Group 3 (expression in more than 80% of the cells)
89%: Percentage of inhibition of cell cultures; Thyroid carcinoma (papillary carcinoma); cases with presence of AKT | Percentage of inhibition of cell cultures; Thyroid carcinoma (papillary carcinoma); cases with presence of ERK
88%: Percentage of inhibition of cell cultures; Urinary bladder carcinoma (transitional cell carcinoma); cases with presence of ERK
28%: Percentage of inhibition of cell cultures; Melanoma (Nodular Melanoma); cases without presence of ERK | Percentage of inhibition of cell cultures; Urinary bladder carcinoma (transitional cell carcinoma); cases without presence of ERK
96%: Percentage of inhibition of cell cultures; Malignant Fibrous Histiocytoma.; Group 3 (expression in more than 80% of the cells) | Percentage of inhibition of cell cultures; Melanoma; Group 3 (expression in more than 80% of the cells) | Percentage of inhibition of cell cultures; Myeloma; Group 3 (expression in more than 80% of the cells) | Percentage of inhibition of cell cultures; Non Hodgkin Lymphoma B; Group 3 (expression in more than 80% of the cells) | Percentage of inhibition of cell cultures; Non Hodgkin Lymphoma B; Intensity grade 3 | Percentage of inhibition of cell cultures; Non Hodgkin Lymphoma T; Group 3 (expression in more than 80% of the cells) | Percentage of inhibition of cell cultures; Ovarian carcinoma (Adenocarcinoma); cases with presence of ERK | Percentage of inhibition of cell cultures; Ovarian carcinoma; Intensity grade 3 | Percentage of inhibition of cell cultures; Pancreatic carcinoma; Group 3 (expression in more than 80% of the cells) | Percentage of inhibition of cell cultures; Prostate carcinoma; Group 3 (expression in more than 80% of the cells) | Percentage of inhibition of cell cultures; Thyroid carcinoma (follicular carcinoma); cases with presence of AKT | Percentage of inhibition of cell cultures; Thyroid carcinoma (follicular carcinoma); cases with presence of ERK | Percentage of inhibition of cell cultures; Thyroid carcinoma (folliculary type); Group 3 (expression in more than 80% of the cells) | Percentage of inhibition of cell cultures; Urinary bladder carcinoma; Intensity grade 3
34%: Percentage of inhibition of cell cultures; Renal cell carcinoma (clear cell renal cell carcinoma); cases without presence of AKT
94%: Percentage of inhibition of cell cultures; Lung carcinoma (non small cell type); Group 3 (expression in more than 80% of the cells) | Percentage of inhibition of cell cultures; Lung carcinoma (small cell lung carcinoma); cases with presence of AKT | Percentage of inhibition of cell cultures; Lung carcinoma (small cell lung carcinoma); cases with presence of ERK | Percentage of inhibition of cell cultures; Lung carcinoma (small cell type); Intensity grade 3 | Percentage of inhibition of cell cultures; Non Hodgkin Lymphoma T (diffuse T cell lymphoma); cases with presence of AKT | Percentage of inhibition of cell cultures; Pancreatic carcinoma (Adenocarcinoma); cases with presence of ERK | Percentage of inhibition of cell cultures; Pancreatic carcinoma (Adenocarcinoma); cases without presence of AKT | Percentage of inhibition of cell cultures; Pancreatic carcinoma (Adenocarcinoma); cases without presence of ERK | Percentage of inhibition of cell cultures; Renal cell carcinoma (clear cell renal cell carcinoma); cases with presence of AKT | Percentage of inhibition of cell cultures; Renal cell carcinoma; Group 3 (expression in more than 80% of the cells) | Percentage of inhibition of cell cultures; Thyroid carcinoma (papillary type); Group 3 (expression in more than 80% of the cells) | Percentage of inhibition of cell cultures; Thyroid carcinoma (papillary type); Intensity grade 3
27%: Percentage of inhibition of cell cultures; Lung carcinoma (small cell lung carcinoma); cases without presence of ERK | Percentage of inhibition of cell cultures; Non Hodgkin Lymphoma T (diffuse T cell lymphoma); cases without presence of ERK | Percentage of inhibition of cell cultures; Non Hodgkin Lymphoma T; Intensity grade 1 | Percentage of inhibition of cell cultures; Prostate carcinoma; cases without presence of ERK | Percentage of inhibition of cell cultures; Thyroid carcinoma (papillary carcinoma); cases without presence of ERK | Percentage of inhibition of cell cultures; Undifferentiated Pleomorphic Sarcoma (malignant fibrous histiocytoma grade 3); cases without presence of ERK
55%: Percentage of inhibition of cell cultures; Lung carcinoma (non small cell type); Group 2 (expression in 20-80% of the cells) | Percentage of inhibition of cell cultures; Lung carcinoma (non small cell type); Intensity grade 2 | Percentage of inhibition of cell cultures; Malignant Fibrous Histiocytoma.; Intensity grade 2 | Percentage of inhibition of cell cultures; Melanoma; Group 2 (expression in 20-80% of the cells) | Percentage of inhibition of cell cultures; Non Hodgkin Lymphoma B; Intensity grade 2 | Percentage of inhibition of cell cultures; Non Hodgkin Lymphoma T; Group 2 (expression in 20-80% of the cells) | Percentage of inhibition of cell cultures; Ovarian carcinoma; Group 2 (expression in 20-80% of the cells) | Percentage of inhibition of cell cultures; Urinary bladder carcinoma; Intensity grade 2
93%: Percentage of inhibition of cell cultures; Neuroblastoma; Intensity grade 3 | Percentage of inhibition of cell cultures; Pancreatic carcinoma; Intensity grade 3 | Percentage of inhibition of cell cultures; Prostate carcinoma; Intensity grade 3
25%: Percentage of inhibition of cell cultures; Lung carcinoma (non small cell lung carcinoma); cases without presence of AKT | Percentage of inhibition of cell cultures; Lung carcinoma (small cell type); Intensity grade 1 | Percentage of inhibition of cell cultures; Malignant Fibrous Histiocytoma.; Intensity grade 1 | Percentage of inhibition of cell cultures; Melanoma (Nodular Melanoma); cases without presence of AKT | Percentage of inhibition of cell cultures; Myeloma; Intensity grade 1 | Percentage of inhibition of cell cultures; Neuroblastoma; Intensity grade 1 | Percentage of inhibition of cell cultures; Non Hodgkin Lymphoma T (diffuse T cell lymphoma); cases without presence of AKT | Percentage of inhibition of cell cultures; Thyroid carcinoma (folliculary type); Group 1 (expression in less than 20% of the cells) | Percentage of inhibition of cell cultures; Undifferentiated Pleomorphic Sarcoma (malignant fibrous histiocytoma grade 3); cases without presence of AKT | Percentage of inhibition of cell cultures; Urinary bladder carcinoma (transitional cell carcinoma); cases without presence of AKT | Percentage of inhibition of cell cultures; Urinary bladder carcinoma; Intensity grade 1
24%: Percentage of inhibition of cell cultures; Lung carcinoma (non small cell type); Intensity grade 1 | Percentage of inhibition of cell cultures; Lung carcinoma (small cell lung carcinoma); cases without presence of AKT | Percentage of inhibition of cell cultures; Lung carcinoma (small cell type); Group 1 (expression in less than 20% of the cells) | Percentage of inhibition of cell cultures; Melanoma; Group 1 (expression in less than 20% of the cells) | Percentage of inhibition of cell cultures; Non Hodgkin Lymphoma B (diffuse B cell lymphoma); cases without presence of AKT | Percentage of inhibition of cell cultures; Ovarian carcinoma (Adenocarcinoma); cases without presence of AKT | Percentage of inhibition of cell cultures; Ovarian carcinoma (Adenocarcinoma); cases without presence of ERK | Percentage of inhibition of cell cultures; Ovarian carcinoma; Group 1 (expression in less than 20% of the cells) | Percentage of inhibition of cell cultures; Prostate carcinoma; Intensity grade 1 | Percentage of inhibition of cell cultures; Thyroid carcinoma (follicular carcinoma); cases without presence of AKT | Percentage of inhibition of cell cultures; Thyroid carcinoma (papillary carcinoma); cases without presence of AKT | Percentage of inhibition of cell cultures; Thyroid carcinoma (papillary type); Intensity grade 1
22%: Percentage of inhibition of cell cultures; Malignant Fibrous Histiocytoma.; Group 1 (expression in less than 20% of the cells) | Percentage of inhibition of cell cultures; Neuroblastoma; Group 1 (expression in less than 20% of the cells) | Percentage of inhibition of cell cultures; Pancreatic carcinoma; Intensity grade 1 | Percentage of inhibition of cell cultures; Renal cell carcinoma; Group 1 (expression in less than 20% of the cells) | Percentage of inhibition of cell cultures; Thyroid carcinoma (papillary type); Group 1 (expression in less than 20% of the cells)
